Measured values reported in publication PMC4807369.

Biological target: IrmA secreted from E. coli MG1655 carrying a plasmid encoding irmA (strain MS5667) (Escherichia coli)
Test: native gel or EMSA

IrmA secreted from E. coli MG1655 carrying a plasmid encoding irmA (strain MS5667) (natural protein)
stoichiometry N: 2
